Data on 8 molecules can be found in patent US12077763B2, “RNA-based control of powdery mildew” (Greenlight Biosciences, Inc., priority 2021, dated 2024).

For this data set, the system named is E. necator. The data set can be described thus: Leaf disc assay, dry inoculum (settling tower), decrease in disease severity / hyphal growth (Example 2). To be noted: decrease in disease severity (hyphal growth) relative to untreated control, value ± SE; for % decrease =/− SE TP1: time point 1 (untreated control hyphal growth ≥50%); for % decrease =/− SE TP2: time point 2.

B1: GS2680 (nucleic acid)
sense: UACUAACAAACUGUCCACCAAAAGUAUAUAUAAUUCCUGCAACUGAGGGAGUAGAUCGCUUGCAAAUAAAAUCAAAAUCUAGCAUUCCUUGAACAGCUCUAGGCUGAAGACCAUAGACGAAACAUCUUGUUUUAUCAUGGAAGAGUGUAUGAGUUGCGUGAGGGCUCAAUGGGCGGCUAGGAGCAGCAAACCGACAGAUGUUAUCAUUGGCUGAUUGCCCAACUUUCGUAGUAUCAUUUGGAGUAGCUGAUGGCAUUUUAAAAUAUUACAAGGUCACAGAGUGUAAUUUUGGGCCUGAUUUCUUCUGUAGAGAUGACUCAAGUAGUAAUAUUUAUCUCUUUCAAUGGUGUAGUAUAUUAAUAGUAUACUCGGGAGAGAAAAUGAUGUGAUAAAAAUUA
antisense: UAAUUUUUAUCACAUCAUUUUCUCUCCCGAGUAUACUAUUAAUAUACUACACCAUUGAAAGAGAUAAAUAUUACUACUUGAGUCAUCUCUACAGAAGAAAUCAGGCCCAAAAUUACACUCUGUGACCUUGUAAUAUUUUAAAAUGCCAUCAGCUACUCCAAAUGAUACUACGAAAGUUGGGCAAUCAGCCAAUGAUAACAUCUGUCGGUUUGCUGCUCCUAGCCGCCCAUUGAGCCCUCACGCAACUCAUACACUCUUCCAUGAUAAAACAAGAUGUUUCGUCUAUGGUCUUCAGCCUAGAGCUGUUCAAGGAAUGCUAGAUUUUGAUUUUAUUUGCAAGCGAUCUACUCCCUCAGUUGCAGGAAUUAUAUAUACUUUUGGUGGACAGUUUGUUAGUA
With B1, the “% decrease =/− SE TP1” value was 12 ± 4% and the “% decrease =/− SE TP2” value stood at 11 ± 5%.

B2: GS2685 (nucleic acid)
sense: GUCUCAUAUCACGAACAGCGAAGCGACCUAAUGGAGGAUAACUUGAAAAUGACUCAACACACAUAGGUUUAGAUGGAAUCAUUUUAACAAUUGCUGCGUCACCAGAUUUAACAAAUUUUGGAGUUGCCUCAAUAGACUUUCCAGUACGACGAUCAAUUUUUUCAAGAAGUUCUGCAAAUUUGCAAGCAAUGUGAGCCGUAUGACAAUCAAGUACAGGUGCGUAACCAGCUCCAAUUUGACCUGGGUGGUUUAACACGAUAACUUGUGCGGUAAAAUGCUCGGCACCCUUAGGGGGGUCAUUCUUAGAAUCACCACAAACAUUACCACGACGGAUUUCUUUCACCGAAACGUUCUUUACAUUGAAGCCAA
antisense: UUGGCUUCAAUGUAAAGAACGUUUCGGUGAAAGAAAUCCGUCGUGGUAAUGUUUGUGGUGAUUCUAAGAAUGACCCCCCUAAGGGUGCCGAGCAUUUUACCGCACAAGUUAUCGUGUUAAACCACCCAGGUCAAAUUGGAGCUGGUUACGCACCUGUACUUGAUUGUCAUACGGCUCACAUUGCUUGCAAAUUUGCAGAACUUCUUGAAAAAAUUGAUCGUCGUACUGGAAAGUCUAUUGAGGCAACUCCAAAAUUUGUUAAAUCUGGUGACGCAGCAAUUGUUAAAAUGAUUCCAUCUAAACCUAUGUGUGUUGAGUCAUUUUCAAGUUAUCCUCCAUUAGGUCGCUUCGCUGUUCGUGAUAUGAGAC
For the molecule B2, the “% decrease =/− SE TP1” value is on record as 23 ± 0% and the “% decrease =/− SE TP2” value turned out to be 15 ± 0%.

B3: GS2799 (nucleic acid)
sense: UAGCAACGGGACGUCCACUUUGUACUCUUACAGCUUCACGUGUAUUAUCAAUCACUGAUUGAUGGUACUCAUGAGAGCCAUGAGAAAAAUUCAUACGGACAACAUUCAGACCAGCUCUUCGAAGUCCAUUUAAGGCCUCGACAUUGUUAGUUUUGGGGCCAAUAGUACAGAUAAUCGAGGUUCGACGAUAAUUCUUAGAGGUGGCAUACUCAGUGUCAAGUUGUGAUAGCCAUUCAAUGCGAGUAGAGCUGGUUAGGUGAUUCAUAGCUGAAACCAUAUUUUGAUCUAAUGAGAACUUUUAUUUGAUGUGAACGUAAAUAGUUGAGGAUGUGUAAAGUUGAGGAGAGAGUUGGCCAAAGAUACUCUUUGAGGGUAGCAAAUUUCGUUUAUCUUAUUAU
antisense: AUAAUAAGAUAAACGAAAUUUGCUACCCUCAAAGAGUAUCUUUGGCCAACUCUCUCCUCAACUUUACACAUCCUCAACUAUUUACGUUCACAUCAAAUAAAAGUUCUCAUUAGAUCAAAAUAUGGUUUCAGCUAUGAAUCACCUAACCAGCUCUACUCGCAUUGAAUGGCUAUCACAACUUGACACUGAGUAUGCCACCUCUAAGAAUUAUCGUCGAACCUCGAUUAUCUGUACUAUUGGCCCCAAAACUAACAAUGUCGAGGCCUUAAAUGGACUUCGAAGAGCUGGUCUGAAUGUUGUCCGUAUGAAUUUUUCUCAUGGCUCUCAUGAGUACCAUCAAUCAGUGAUUGAUAAUACACGUGAAGCUGUAAGAGUACAAAGUGGACGUCCCGUUGCUA
B3: the “% decrease =/− SE TP1” value is 31 ± 5% and the “% decrease =/− SE TP2” value worked out at 20 ± 8%.

B4: GS3295 (nucleic acid)
sense: UCAUCUUUUGCCGCUCUUUAUCAUGAUCUUGAUAUGGGAUUUACACCGAUCAACUUUACAUUUUACUGGGCACCUCUACCUUGGAAUCGUGCUCGUGAUCAUGCCCAAAGAACUGUUGCUAGGACGAACCUCGCUCCAAGGGGGCUUUAUGGGAAUCUGCCUCGUAGUAUAAAGUUCUGCAGCUGGCUCUACGGAUUGCAUCUACAACAACUACAACAUCAUCAUCAUCAUCAUCUUCAUCUUCAUCUUC
antisense: GAAGAUGAAGAUGAAGAUGAUGAUGAUGAUGAUGUUGUAGUUGUUGUAGAUGCAAUCCGUAGAGCCAGCUGCAGAACUUUAUACUACGAGGCAGAUUCCCAUAAAGCCCCCUUGGAGCGAGGUUCGUCCUAGCAACAGUUCUUUGGGCAUGAUCACGAGCACGAUUCCAAGGUAGAGGUGCCCAGUAAAAUGUAAAGUUGAUCGGUGUAAAUCCCAUAUCAAGAUCAUGAUAAAGAGCGGCAAAAGAUGA
On to B4, for which the “% decrease =/− SE TP1” value is 33 ± 6% and the “% decrease =/− SE TP2” value worked out at 26 ± 8%.

B5: GS2684 (nucleic acid)
sense: UUGGCAGCUCGCCAUUUCUUAUCAAAGAGAUACCUAAAUGAUAAACUUAAAAUACUUGCAGUGAAUAUAUCUGCUAGAGUAAGACGCUCUCCAACUAAGAAUGUGUUGUUUUGAAGAGUAUCCUCAAAAAUUUGAGCAUAAUCGAUUGUUUUUUUGACACCUUCAUCAUAAACCUUUUUAUUGUAUGCGACAAUACCAAAAAAAGGAUAAAGCCAGCUGGCAUAGCAGUUACUAAUAUCUUGAUUGACAAAAGACAUCCACUUUAAAAUAGAGGCAUAAGUCUAAUUAUGAAAGUCCACACGGAGUGUUAAGACAGGGACUGUUUUAUGUCAAGGAAAAUUUUUCAACUGAGAGAGCUUAGCAUACUCCUGCUUGGUUUU
antisense: AAAACCAAGCAGGAGUAUGCUAAGCUCUCUCAGUUGAAAAAUUUUCCUUGACAUAAAACAGUCCCUGUCUUAACACUCCGUGUGGACUUUCAUAAUUAGACUUAUGCCUCUAUUUUAAAGUGGAUGUCUUUUGUCAAUCAAGAUAUUAGUAACUGCUAUGCCAGCUGGCUUUAUCCUUUUUUUGGUAUUGUCGCAUACAAUAAAAAGGUUUAUGAUGAAGGUGUCAAAAAAACAAUCGAUUAUGCUCAAAUUUUUGAGGAUACUCUUCAAAACAACACAUUCUUAGUUGGAGAGCGUCUUACUCUAGCAGAUAUAUUCACUGCAAGUAUUUUAAGUUUAUCAUUUAGGUAUCUCUUUGAUAAGAAAUGGCGAGCUGCCAA
For the molecule B5, the “% decrease =/− SE TP1” value is listed as 31 ± 4% and the “% decrease =/− SE TP2” value was 18 ± 4%.

B6: ES49: dsRNA trigger SEQ ID NO 112; gene target Hypotethical effector (nucleic acid)
DNA: ATGCGTTTCATCATAGGAGCTGTCGTCTCTTCACTCATTTTGTCGCCAATTTCAGTGCTTTCTATGGCGGCTAGTAATGACTCTACCGAAGCTGCAGCGCATATCATAAATGATTCTATACTAGAAGATGTTTCGAACGTTGCAGATTTCGACTGGTCTTCAACGTCATATCAAGGCCTAGAGAAAAGATTTTGTTTCAGACGAGGATGCAAGGAAGAAAAGCTCAAGAGGACATCAGGTTTCCAATGCAAAAAGAAGTACATCAGCTCGGAGAAAATTGAGAGAGCAAAAGCCGCTGGCTGTCCGGAAATCAAAAAAAATAAGCAGCGATCCGCTTTTCCTTCTCTCTACACTGCATCCGACTTTGCTGTTCCAGGTCCTTACCTAGAATGGCCGATCAGCCGCAATGGAAGGTTTTGGAACAAATTGAGTAAGGGCAAGTACCGTATCATCATGACCAAAAGCTGCAAGGTGG
Turning to B6, the “% decrease =/− SE TP1” value is listed as 9 ± 1% and the “% decrease =/− SE TP2” value turned out to be 6 ± 3%.

B7: GS2732 (nucleic acid)
sense: GGAAAAUGUGAGUUGCCGCCAUCGAUAAUUAUGUCUCCUUGAUCGAGGAAUGGCAAUAAUGUUUCAAUAAAAUCAUCAACAGGCUUUCCAGCCAUGACAAGCAGCAUAAUACGACGUGGUUUUUUUAGUUUACUCACAAAUUCCUGGAUAGAACGAGCACCUUCAAUAGAUUUCCCUUUUGCCUCAUUUUCAAGAAAGUGGUCUACCUUAGCUACAGUUCGAUUAUAUGCAAUAACAUUAAAUCCAUGGUCUGCAGCAUUCAGAAUUAGAUUCUGCCCCAUGACAGCUAGACCGAUAAGGCCAAAGUCUCCUGUAGCAGCACUCAUAUUUUUUUGAUUAUAAAUUUAGAAGCCCAAAGACUGGAGCUUAUAUGGAGAACAGAGAUUACACAGAUGGGA
antisense: UCCCAUCUGUGUAAUCUCUGUUCUCCAUAUAAGCUCCAGUCUUUGGGCUUCUAAAUUUAUAAUCAAAAAAAUAUGAGUGCUGCUACAGGAGACUUUGGCCUUAUCGGUCUAGCUGUCAUGGGGCAGAAUCUAAUUCUGAAUGCUGCAGACCAUGGAUUUAAUGUUAUUGCAUAUAAUCGAACUGUAGCUAAGGUAGACCACUUUCUUGAAAAUGAGGCAAAAGGGAAAUCUAUUGAAGGUGCUCGUUCUAUCCAGGAAUUUGUGAGUAAACUAAAAAAACCACGUCGUAUUAUGCUGCUUGUCAUGGCUGGAAAGCCUGUUGAUGAUUUUAUUGAAACAUUAUUGCCAUUCCUCGAUCAAGGAGACAUAAUUAUCGAUGGCGGCAACUCACAUUUUCC
Regarding B7, the “% decrease =/− SE TP2” value is 18 ± 10%.

B8: GS2804 (nucleic acid)
sense: UUUUAAAGCUAUGUAUCCUCAAGUAACAGAAUUAGAAAACCUAGUUUUCAAAUUGAGAUUUUGGAAAAAAUCUAACAACCACUUCACUUGGCUCCAUCAAUUUUGGAAAUAUAACUUAGGAGAUCUAAAACACGGCGAGAGUAACCCCAUUCAUUAUCAUACCAUGAUACGAGUUUGACAAAGUUGUCAUUGAGCGAGAUUCCAGCUUUCGCGUCGAAAAUGGAUGAGUGAUUAUCACCGAUUAAAUCAGUUGAAACGAUGUCAUCCUCAGUAUAAGAAAGUAUGCCUUUUAAUUCACCAUUGGCAGCCUCCUUGAUAGCAGCCUUAAUUUGGUCAUAAGUAGCACCCUUUCCAAUGCGGCAUGUUAAGUCAACAACGGAAACAUUAGCAGUGGGUA
antisense: UACCCACUGCUAAUGUUUCCGUUGUUGACUUAACAUGCCGCAUUGGAAAGGGUGCUACUUAUGACCAAAUUAAGGCUGCUAUCAAGGAGGCUGCCAAUGGUGAAUUAAAAGGCAUACUUUCUUAUACUGAGGAUGACAUCGUUUCAACUGAUUUAAUCGGUGAUAAUCACUCAUCCAUUUUCGACGCGAAAGCUGGAAUCUCGCUCAAUGACAACUUUGUCAAACUCGUAUCAUGGUAUGAUAAUGAAUGGGGUUACUCUCGCCGUGUUUUAGAUCUCCUAAGUUAUAUUUCCAAAAUUGAUGGAGCCAAGUGAAGUGGUUGUUAGAUUUUUUCCAAAAUCUCAAUUUGAAAACUAGGUUUUCUAAUUCUGUUACUUGAGGAUACAUAGCUUUAAAA
On to B8, for which the “% decrease =/− SE TP1” value is reported as 32 ± 5% and the “% decrease =/− SE TP2” value stood at 10 ± 8%.
